The values below come from IntAct's records for PubMed 20062059.

To fix the notation:
B1: Exocyst complex component SEC3 (Saccharomyces cerevisiae), P33332 (parent)
chain: MRSSKSPFKRKSHSRETSHDENTSFFHKRTISGSSAHHSRNVSQGAVPSSAPPVSGGNYSHKRNVSRASNSSQTSNFLAEQYERDRKAIINCCFSRPDHKTGEPPNNYITHVRIIEDSKFPSSRPPPDSKLENKKKRLLILSAKPNNAKLIQIHKARENSDGSFQIGRTWQLTELVRVEKDLEISEGFILTMSKKYYWETNSAKERTVFIKSLITLYIQTFEGHVPELVNWDLSLFYLDERSYQRAVITNRPGSVSPIKSPTSNFTTNTTQSVGSVPFSAPTERTRRSETESVNPVSTPASVEYHAGMKSLNKAPYSSNSTLNEVNKRYELEQQQQQEEAELRRLEEQKRLQLQKENEMKRLEEERRIKQEERKRQMELEHQRQLEEEERKRQMELEAKKQMELKRQRQFEEEQRLKKERELLEIQRKQREQETAERLKKEEQEALAKKEEEEKSKRNKVDNESYTQEINGKVDNLLEDLNAVLAEETETTPTMQNGTYVPERSTARAHDQLKKPLNIAKVESLGGSDLNDSISLSDEIAGLNTSNLSGEDQDEKNDLSFEKGDEVRYSNNFEGEAPHVYHEVSIIQEEAPAVSQKLILPEENNESEALIESKEEIKTMENIDDEVLLEILTDINWSIEDDADSMIERIDLRLAETEYLFNQNLLSLQKIGPNIRPYEDKVNDECHRIIPTLSLFLMEMSNFSNDIENVESQDNGLQVESANKKLLWNTLDELLKTVSLDEISLNQLLECPIREKNLPWMENQLNLLLKAFQAIGSDGNEVEYNLREISGLKQRLQFYEKVTKIFLNRIVEEMQKKFSNIRGQDISHDQMIRILTTLLIFSPLILFCKEISQKSYQAIVENWNVSIQPVYMELWTKKISQLQGIDTNDEKMNELSLSQLLNEWDTFRKERKTNDINPVFKNSFSLLTECLQTMRQECIVYQNFVEVFFHISSKHNFEEYIKHFNDPDAPPILLDTVKVMQSDREAAVIETQLVSRIFQPIVTRLSSYFVELVKAEPTVAPALTFYLENEIKSLESSNHEFLLSAVTRMYTQIKQVWSDNVEEQVLHFERISNATTNGEILPGILDLPVGLKNSEDLFQFAKRSMDIKDTDEGYESIELMNSSFRKLSIAATRSITHKEVNSSINPNLSDTAALNNDYMETISLLVNSNWLTEMLSMLNFNKDGIFDTSLQNVKKVFDVEKESYASFLLRDTMPKLTAFVYGVSNIIENTNNVNMTNPSRWAAYSRQNLENILLAYTSHEIETLVKRLHTHMVNDFGYHQENAINNVLCDKLWSCIQGQTVSLYLKLYTVIDKHYRGTNIRFTKNDIISAFEEYKNA

This test covers variants of B1. Particulars: with rho1_yeast RHO1, P06780.
rho1_yeast RHO1, P06780, sequence (P06780 whole entry): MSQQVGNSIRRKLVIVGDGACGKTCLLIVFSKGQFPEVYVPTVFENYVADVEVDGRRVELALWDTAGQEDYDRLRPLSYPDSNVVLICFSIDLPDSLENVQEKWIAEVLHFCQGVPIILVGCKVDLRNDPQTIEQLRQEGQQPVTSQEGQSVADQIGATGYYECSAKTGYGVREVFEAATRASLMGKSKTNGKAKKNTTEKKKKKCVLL
Turning to L131A, the “effect of a mutation on the interaction” value is given as “disrupting interaction”.

For K136A, the “effect of a mutation on the interaction” value was “disrupting interaction”.

Consider E199A, for which the “effect of a mutation on the interaction” value is reported as “disrupting interaction”.
